{
  "source": "patent US20140088023A1",
  "about": "(UNIVERSITY OF TOLEDO, published 2014)",
  "key": {"[1]": {"biological_target": "T1, soluble guanylyl cyclase alpha 1 (sGCα1) (UniProt Q02108 1-690)", "T1 sequence (looked up)": "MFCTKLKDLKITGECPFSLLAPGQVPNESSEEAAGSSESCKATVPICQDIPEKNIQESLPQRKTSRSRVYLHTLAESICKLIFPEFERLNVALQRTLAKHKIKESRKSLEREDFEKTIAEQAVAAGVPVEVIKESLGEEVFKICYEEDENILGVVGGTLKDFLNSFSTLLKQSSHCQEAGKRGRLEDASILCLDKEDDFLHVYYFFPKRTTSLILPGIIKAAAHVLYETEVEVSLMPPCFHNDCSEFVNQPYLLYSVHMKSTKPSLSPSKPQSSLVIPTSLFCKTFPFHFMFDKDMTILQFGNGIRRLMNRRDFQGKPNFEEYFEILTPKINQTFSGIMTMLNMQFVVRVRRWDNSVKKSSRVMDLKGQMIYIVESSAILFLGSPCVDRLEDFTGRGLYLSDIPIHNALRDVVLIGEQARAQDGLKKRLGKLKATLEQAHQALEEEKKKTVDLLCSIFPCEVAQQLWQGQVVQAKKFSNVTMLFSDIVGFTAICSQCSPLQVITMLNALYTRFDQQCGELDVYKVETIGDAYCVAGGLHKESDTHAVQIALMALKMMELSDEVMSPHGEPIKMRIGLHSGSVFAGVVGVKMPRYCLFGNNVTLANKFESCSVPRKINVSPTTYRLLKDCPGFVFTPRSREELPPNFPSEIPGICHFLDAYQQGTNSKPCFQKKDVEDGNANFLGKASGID", "assay": "cell-based or functional assay"}, "[2]": {"biological_target": "T1, soluble guanylyl cyclase alpha 1 (sGCα1)", "assay": "competitive binding assay"}},
  "note": "Ends that are not written are not given here.",
  "data": [
    {"binder": "FCAAFRRRRRRRR-NH2", "note": "[Peptide FF5-K3A-8R]", "values": [
      {"measurement": "IC50 (µM), cytotoxicity, Day 3, LNCaP cell culture", "setting": "[1]", "value": 60, "unit": "µM"},
      {"measurement": "IC50 (µM), cytotoxicity, Day 6, LNCaP cell culture", "setting": "[1]", "value": 38, "unit": "µM"}
    ]},
    {"binder": "KAFPRRRRRRRR", "note": "[Peptide KP4-8R]", "values": [
      {"measurement": "binding result", "setting": "[2]", "value": "no binding"}
    ]},
    {"binder": "FCKAARRRRRRRR-NH2", "note": "[Peptide FF5-F5A-8R]", "values": [
      {"measurement": "IC50 (µM), cytotoxicity, Day 3, LNCaP cell culture", "setting": "[1]", "value": 160, "unit": "µM"},
      {"measurement": "IC50 (µM), cytotoxicity, Day 6, LNCaP cell culture", "setting": "[1]", "value": 120, "unit": "µM"}
    ]},
    {"binder": "FCKAFRRRRRRRR-NH2", "note": "[Peptide FF5-8R]", "values": [
      {"measurement": "IC50 (µM), cytotoxicity, Day 3, LNCaP cell culture", "setting": "[1]", "value": 22, "unit": "µM"},
      {"measurement": "IC50 (µM), cytotoxicity, Day 6, LNCaP cell culture", "setting": "[1]", "value": 40, "unit": "µM"}
    ]},
    {"binder": "Ac-TFCKAFPFHIIRRRRRRRR-OH", "note": "[Peptide A-8R]", "values": [
      {"measurement": "IC50 (µM), cytotoxicity, Day 3, LNCaP cell culture", "setting": "[1]", "value": 8, "unit": "µM"},
      {"measurement": "IC50 (µM), cytotoxicity, Day 6, LNCaP cell culture", "setting": "[1]", "value": 16, "unit": "µM"}
    ]},
    {"binder": "TFCKAFRRRRRRRR-NH2", "note": "[Peptide TF6-8R]", "values": [
      {"measurement": "IC50 (µM), cytotoxicity, Day 3, LNCaP cell culture", "setting": "[1]", "value": 18, "unit": "µM"},
      {"measurement": "IC50 (µM), cytotoxicity, Day 6, LNCaP cell culture", "setting": "[1]", "value": 28, "unit": "µM"}
    ]},
    {"binder": "TFCKAFPRRRRRRRR-NH2", "note": "[Peptide TP7-8R]", "values": [
      {"measurement": "IC50 (µM), cytotoxicity, Day 3, LNCaP cell culture", "setting": "[1]", "value": 16, "unit": "µM"},
      {"measurement": "IC50 (µM), cytotoxicity, Day 6, LNCaP cell culture", "setting": "[1]", "value": 23, "unit": "µM"}
    ]},
    {"binder": "FAKAFRRRRRRRR-NH2", "note": "[Peptide FF5-C2A-8R]", "values": [
      {"measurement": "IC50 (µM), cytotoxicity, Day 3, LNCaP cell culture", "setting": "[1]", "value": "~210", "unit": "µM"},
      {"measurement": "IC50 (µM), cytotoxicity, Day 6, LNCaP cell culture", "setting": "[1]", "value": 145, "unit": "µM"}
    ]},
    {"binder": "TFCRRRRRRRR", "note": "[Peptide TC3-8R]", "values": [
      {"measurement": "IC50 (µM), cytotoxicity, Day 3, LNCaP cell culture", "setting": "[1]", "value": 72, "unit": "µM"},
      {"measurement": "IC50 (µM), cytotoxicity, Day 6, LNCaP cell culture", "setting": "[1]", "value": 140, "unit": "µM"}
    ]},
    {"binder": "FCKAFPRRRRRRRR-NH2", "note": "[Peptide FP6-8R]", "values": [
      {"measurement": "IC50 (µM), cytotoxicity, Day 3, LNCaP cell culture", "setting": "[1]", "value": 22, "unit": "µM"},
      {"measurement": "IC50 (µM), cytotoxicity, Day 6, LNCaP cell culture", "setting": "[1]", "value": 35, "unit": "µM"}
    ]},
    {"binder": "FCKARRRRRRRR", "note": "[Peptide FA4-8R]", "values": [
      {"measurement": "IC50 (µM), cytotoxicity, Day 3, LNCaP cell culture", "setting": "[1]", "value": 43, "unit": "µM"},
      {"measurement": "IC50 (µM), cytotoxicity, Day 6, LNCaP cell culture", "setting": "[1]", "value": 90, "unit": "µM"}
    ]},
    {"binder": "FMKAFRRRRRRRR-NH2", "note": "[Peptide FF5-C2M-8R]", "values": [
      {"measurement": "IC50 (µM), cytotoxicity, Day 3, LNCaP cell culture", "setting": "[1]", "value": 90, "unit": "µM"},
      {"measurement": "IC50 (µM), cytotoxicity, Day 6, LNCaP cell culture", "setting": "[1]", "value": 65, "unit": "µM"}
    ]},
    {"binder": "CKAFRRRRRRRR-NH2", "note": "[Peptide CF4-8R]", "values": [
      {"measurement": "IC50 (µM), cytotoxicity, Day 3, LNCaP cell culture", "setting": "[1]", "value": 62, "unit": "µM"},
      {"measurement": "IC50 (µM), cytotoxicity, Day 6, LNCaP cell culture", "setting": "[1]", "value": 120, "unit": "µM"}
    ]},
    {"binder": "ACKAFRRRRRRRR-NH2", "note": "[Peptide FF5-F1A-8R]", "values": [
      {"measurement": "IC50 (µM), cytotoxicity, Day 3, LNCaP cell culture", "setting": "[1]", "value": 200, "unit": "µM"},
      {"measurement": "IC50 (µM), cytotoxicity, Day 6, LNCaP cell culture", "setting": "[1]", "value": 160, "unit": "µM"}
    ]}
  ]
}
